Assay results taken from article PMC3096069 (Journal of molecular biology, 2011).
Values belong to the molecule of their own block, whether it stands above or below them.

B1: mSin3A PAH2 (mammalian Sin3A PAH2 domain, residues 295-385) (domain or fragment, UniProt Q60520 295-385, looked up)
chain: SLQNNQPVEFNHAINYVNKIKNRFQGQPDIYKAFLEILHTYQKEQRNAKEAGGNYTPALTEQEVYAQVARLFKNQEDLLSEFGQFLPDANS
B2: Pf1 200-241 (human Pf1 residues 200-241, wild type) (domain or fragment, UniProt Q96QT6 200-241, looked up)
chain: DYVQPQLRRPFELLIAAAMERNPTQFQLPNELTCTTALPGSS
B3: Pf1 200-241 Leu212Ala (domain or fragment, human, UniProt Q96QT6 200-241, looked up)
chain: DYVQPQLRRPFEALIAAAMERNPTQFQLPNELTCTTALPGSS
B4: Pf1 200-241 Asn221Glu (domain or fragment, human, UniProt Q96QT6 200-241, looked up)
chain: DYVQPQLRRPFELLIAAAMEREPTQFQLPNELTCTTALPGSS
B5: Pf1 200-241 Phe225Ala (domain or fragment, human, UniProt Q96QT6 200-241, looked up)
chain: DYVQPQLRRPFELLIAAAMERNPTQAQLPNELTCTTALPGSS

Experiments:
[1] = target: mSin3A PAH2 (Mus musculus) (UniProt Q60520); settings: cited from earlier work
[2] = target: Pf1 200-241 (human Pf1 residues 200-241, wild type) (human) (UniProt Q96QT6); assay: ITC
[3] = target: B3; assay: ITC
[4] = target: B4; assay: ITC
[5] = target: B5; assay: ITC
[6] = target: B2; assay: ITC
[7] = target: B1; assay: ITC
[8] = target: MRG15 MRG (human MRG15 MRG domain, residues 155-323) (human, UniProt Q9UBU8-2 155-323); assay: ITC
Sequence of MRG15 MRG (human MRG15 MRG domain, residues 155-323) (Q9UBU8 194-362): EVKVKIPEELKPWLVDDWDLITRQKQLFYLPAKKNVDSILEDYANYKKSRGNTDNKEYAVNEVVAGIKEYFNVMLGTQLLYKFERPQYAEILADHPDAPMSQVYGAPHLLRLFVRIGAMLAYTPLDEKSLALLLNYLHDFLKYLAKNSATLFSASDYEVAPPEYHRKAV

Sequence of mSin3A PAH2 (Mus musculus) (Q60520 297-386): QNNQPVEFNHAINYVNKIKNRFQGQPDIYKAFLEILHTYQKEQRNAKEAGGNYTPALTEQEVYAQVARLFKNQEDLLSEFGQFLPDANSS

Molecule: Mad1/Mxd1 (from UniProt Q05195)
- Kd [1]: 50 nM

- Kd [2]: 2930 nM
- dH [2]: -9.64 kcal/mol
- stoichiometry N [2]: 1.02
Molecule: mSin3B PAH2 (mammalian Sin3B PAH2 domain) (domain or fragment)

Molecule: B1
- dH [3]: -4.31 ± 0.49 kcal/mol
- stoichiometry N [3]: 1 ± 0.11
- dH [4]: -7.67 ± 0.43 kcal/mol
- stoichiometry N [4]: 1.16 ± 0.08
- dH [5]: -4.97 kcal/mol
- stoichiometry N [5]: 1.12
- dH [6]: -6.58 ± 0.48 kcal/mol
- stoichiometry N [6]: 0.99 ± 0.05

Molecule: B2
- Kd [7]: 2150 ± 450 nM
- Kd [8]: 15 ± 3 nM
- dH [8]: -13.1 ± 0.4 kcal/mol
- stoichiometry N [8]: 0.82 ± 0.08

Molecule: B3
- Kd [7]: 2660 ± 460 nM

Molecule: B4
- Kd [7]: 630 ± 50 nM

Molecule: B5
- Kd [7]: 1650 nM
